# According to the DeepSol protein solubility set:
# Assay: soluble on expression in E. coli; label from the status in PepcDB or PDB records
row,Sequence,soluble on expression in E. coli
1,MVENSELRKAGLKVTLPRVKILQMLDSAEQRHMSAEDVYKALMEAGEDVGLATVYRVLTQFEAAGLVVRHNFDGGHAVFELADSGHHDHMVCVDTGEVIEFMDAEIEKRQKEIVRERGFELVDHNLVLYVRKKK,not soluble
2,MDAPKAGYAFEYLIETLNDSSHKKFFDVSKLGTKYDVLPYSIRVLLEAAVRNCDGFLMKKEDVMNILDWKTKQSNVEVPFFPARVLLQDFTGIPAMVDFAAMREAVKTLGGDPEKVHPACPTDLTVDHSLQIDFSKCAIQNAPNPGGGDLQKAGKLSPLKVQPKKLPCRGQTTCRGSCDSGELGRNSGTFSSQIENTPILCPFHLQPVPEPETVLKNQEVEFGRNRERLQFFKWSSRVFKNVAVIPPGTGMAHQINLEYLSRVVFEEKDLLFPDSVVGTDSHITMVNGLGILGWGVGGIETEAVMLGLPVSLTLPEVVGCELTGSSNPFVTSIDVVLGITKHLRQVGVAGKFVEFFGSGVSQLSIVDRTTIANMCPEYGAILSFFPVDNVTLKHLEHTGFSKAKLESMETYLKAVKLFRNDQNSSGEPEYSQVIQINLNSIVPSVSGPKRPQDRVAVTDMKSDFQACLNEKVGFKGFQIAAEKQKDIVSIHYEGSEYKLSHGSVVIAAVISCTNNCNPSVMLAAGLLAKKAVEAGLRVKPYIRTSLSPGSGMVTHYLSSSGVLPYLSKLGFEIVGYGCSTCVGNTAPLSDAVLNAVKQGDLVTCGILSGNKNFEGRLCDCVRANYLASPPLVVAYAIAGTVNIDFQTEPLGTDPTGKNIYLHDIWPSREEVHRVEEEHVILSMFKALKDKIEMGNKRWNSLEAPDSVLFPWDLKSTYIRCPSFFDKLTKEPIALQAIENAHVLLYLGDSVTTDHISPAGSIARNSAAAKYLTNRGLTPREFNSYGARRGNDAVMTRGTFANIKLFNKFIGKPAPKTIHFPSGQTLDVFEAAELYQKEGIPLIILAGKKYGSGNSRDWAAKGPYLLGVKAVLAESYEKIHKDHLIGIGIAPLQFLPGENADSLGLSGRETFSLTFPEELSPGITLNIQTSTGKVFSVIASFEDDVEITLYKHGGLLNFVARKFS,soluble
3,MGSDKIHHHHHHMAIAPTLNIPQAKFLAMQYKFKAYVAGFGSGKTWVGCGGICKGMWEHPKINQGYFAPTYPQIRDIFYPTVEEVAHDWGLNVKINEGNKEVHFYAGRQYRGTTICRSMEKPQTIVGFKIGNALIDELDVMPAKKAQLAWRKIIARMRYNVAGLRNGIDVTTTPEGFKFVYQQFAKAVRDKPSLSTLYGLVQASTFDNEKNLPPDYIPSLMESYPPELIKAYLRGQFTNLTSGTIYHQFDRKLNNCREEEQPGEPLYIGMDFNVGKMAGVVHVLRLGLPFAVTEIIKAYDTPDMIRIIKERFWLCDGHDYRKVREIYIYPDASGDSRKSSNASATDIAQLKQAGFNVVVNASNPPVKDRINAMNAMFCNGNGERRYKVNVKRCPVYTESLEQQVWGENGEPDKTADNDHPNDAGGYFIVKQFPIIKPTGKVTQLRM,not soluble
4,GPGSMVDDFSSLSSPYVFLHGPLCSKDTCAVAAIGTTARLPYARPHSLLPLTSFLALRPAVSSGGLRHTRAYTHLLDTRVQVRIAMSEAAPPPVLGTASSAVAPQPFGGSEASRKRRLKPISFQRMAMIQEEIARIDKHLEALEASESKVVDPDSVGQHNLTTEDVIDPVVLHMLTVELCQLAASGDAVGARILLTGGADPNSRDYDGRTLLHIACMNGRLSVVTVLLEFSADASLLDRDGNTPLEVAEEYGFGDVAQVLSGYFDAGANAVPDSFTWKPPSFESTPVSIHQPDFSAVP,not soluble
5,MFLDEHINRNFDKLNDNDLHIAHFINTHIDECKNMKIQDLAQFTHASNATIHRFTRKLGFDGYSDFKSYLKFESNKTHQLPSNSIDSFKQEIDSTFSYLERVDYQLLTEKMHTA,not soluble
6,MSAKHPVIAVTGSSGAGTTTTSLAFRKIFAQLNLHAAEVEGDSFHRYTRPEMDMAIRKARDAGRHISYFGPEANDFSLLEHTFIEYGQTGKGQSRKYLHTYDEAVPWNQVPGTFTPWQPLPEPTDVLFYEGLHGGVVTPQHDVARHVDLLVGVVPIVNLEWIQKLIRDTSERGHSREAVMDSVVRSMDDYINYITPQFSRTHINFQRVPTVDTSNPFAAKGIPSLDESFVVIHFRNLEGIDFPWLLAMLQGSFISHINTLVVPGGKMGLAMELIMLPLVQRLMEGKKIE,not soluble
7,MSLELIEENDFDAIYIGNSKVMIKDYRGFVATLRILREKFPNAVLITDLEPFFYPLAVYLGVDAFDVRSLKIYSYEGLGFTPFSPVIWDRPNDPIEFAREMIKIIKIAIQEGKLRYLVENFLPTVMNVGILRIADKEHGDYLEKYTPVHDKTVVFISEHSISRPEVFRWRKRIEERFEPPKGIDLLLIFPCSAKKPYSRSRSHMMYRKVMKEALGEKVHRVHELVVTSPYGVVPREWEWLAKYDIVVTGHWSESEVRFAGELLAQTIEKYPDIPIVAHVEGGYREAVKYAMELVNRDVIFTAVGSSTISKESLDKLKKTLKEFDLRDAEKDYRRYRFYENVRKVFDYYFGLGAGEAVLPENAQIVGSKMLRLIVNNSQTGTFQEGVISVTPFGMQRIYDKLNSYWVEVDFDIRGDVFAAGVERADEGIRPNDIVGIVRDGRVVAVGRAVLSGEEMVRAKKGIAVRVRKRVKNKEGHHHHHH,not soluble
8,MHTGCCTTKFDTEVLIIGNGPAGIALSSFLSGMHPFYDATHPHENVTVHEKLLANHDFSLIDQDLSWSSNLTELSQSGRPLSVLYDMLVRPGADMGSDAPGCIQWELNRRREIPHMVIGETKIGGSWNEYDAEMLTVSFSDWMDMPGFTMEQWLGGRPLVKRLPSVAIATYLKKYVERLRLRKKFHQYFVVNSIKKIGDVWVTSGKRSTDGRSFVIRSKQVVVACGKTSPRKLQLPNEEHCSSNIVYDVRALKERLDATKKTVIDEDENYDTPSTSTCSPVIVVGDGVSSVDCVRHCLERDIPVVHVIRRTLRELRNVMLSRLSPIHYSEYTDIYRMMIGRSVHKNYQRVLDASITSVSKIHVEITTGSNREIIEMPYSTVAVCIGRESHFSTVFENAHTFLDYQSEQDETLFAVGAYAGDHFVRFLVGGCLRVAQHITGAANNNNVTAKLLPIC,not soluble
9,AHHHHHHGSSEVYRLTCIVCPLSCSIEVEIEAGKIKDIKGYTCPRGKEWAIEEIRAPKRVVMSVIPVEGGKLPTVSVKTEKPIPKDKIPELMKMLAKLKLKAPVKVGQVVGEFEGVKIIATREA,soluble
10,MKRARSANIPGAILHSLAELQDGLNAMIDPSWRAVRSLDNWALAITMESTELLDSYPWKWWKNLNATPDLANVRIELVDIFHFSLSGAMQMRSTPDDEIPAASLKPLKEVMTTFLPAKECTSDPYGFVFFPLTDTQNAIASFRNIIQLANAYRFDVIIECIIYAAEDLGFNLVAYYIAKHTLNCIRQLSGYKDGSYVKVNNGVEDNSLLHNCIKDVSLDEVLDADKYVQAWNSIMANVYEAFQIKESDRKDAERWFALAKENRLAIKA,soluble
11,MGRAFEYRRAAKEKRWDKMSKVFPKLAKAITLAAKDGGSEPDTNAKLRTAILNAKAQNMPKDNIDAAIKRASSKEGNLSEITYEGKANFGVLIIMECMTDNPTRTIANLKSYFNKTQGASIVPNGSLEFMFNRKSVFECLKNEVENLKLSLEDLEFALIDYGLEELEEVEDKIIIRGDYNSFKLLNEGFESLKLPILKASLQRIATTPIELNDEQMELTEKLLDRIEDDDDVVALYTNIELEHHHHHH,soluble
12,GHMKSEKEKMLAGHLYNPADLELVKERERARRLVRLYNETLETEYDKRTGLLKELFGSTGERLFIEPNFRCDYGYNIHVGENFFMNFDGVILDVCEVRIGDHCFIGPGVHIYTATHPLDPHERNSGLEYGKPVVIGHNVWIGGRAVINPGVTIGDNAVIASGAVVTKDVPANAVVGGNPAKVIKWLK,soluble
13,MSLTARIGVVTFPGSLDDRDTQRAIKLAGAEPVALWHKDKDLKQVDAVVLPGGFSYGDYLRAGAISRFSPVMETVIEQAKSGMPVLGICNGFQILTEAHLLPGAMLGNNHLHFICRDQKLRVENADTAWTSDYEAGQEIHIPLKNMDGRYVADERTLDMLEAEGRVAFRYVVGGAAADGYGNPNGSLRDIAGITNEAGNVVGLMPHPEHAVEPLIGTGRTDGLPFFTSILKKLVNAEGHHHHHH,soluble
14,MPFHYPKLYMDHRGNMSTSSSLTSSTTATSSSSTGGVRKQILTLKPKQPNGYVQHLEIKAKESSQSSVISGGVPVPVTLLELKKKDRSEKNVVTNLKYRKPTANHHLDSVHSSSEHHHHHHLSLSSLTRRPGSPSSSGYETDSLVDQENCDVFSSLFNSSLSYQSALDHHHQFHELDMLHSHPIWSPQLPNNNTSLMMGSNSYYLQ,not soluble
